Target: the molecule itself
Experiment: EGS crosslinking of recombinant protein, SDS-PAGE, immunoblot

Protein	binding result
recombinant ΔN-IKK-γ (134-419) (other, not shown: small tags and cut ends, also called N-terminal truncation) QMAEDKASVKAQVTSLLGELQESQSRLEAATKECQALEGRARAASEQARQLESEREALQQQHSVQVDQLRMQGQSVEAALRMERQAASEEKRKLAQLQVAYHQLFQEYDNHIKSSVVGSERKRGMQLEDLKQQLQQAEEALVAKQEVIDKLKEEAEQHKIVMETVPVLKAQADIYKADFQAERQAREKLAEKKELLQEQLEQLQREYSKLKASCQESARIEDMRKRHVEVSQAPLPPAPAYLSSPLALPSQRRSPPEEPPDFCCPKCQYQAPDMDTLQIHVMECIE	binds
recombinant ΔC-IKK-γ (1-300) (other, not shown: small tags and cut ends, also called C-terminal truncation) MNRHLWKSQLCEMVQPSGGPAADQDVLGEESPLGKPAMLHLPSEQGAPETLQRCLEENQELRDAIRQSNQILRERCEELLHFQASQREEKEFLMCKFQEARKLVERLGLEKLDLKRQKEQALREVEHLKRCQQQMAEDKASVKAQVTSLLGELQESQSRLEAATKECQALEGRARAASEQARQLESEREALQQQHSVQVDQLRMQGQSVEAALRMERQAASEEKRKLAQLQVAYHQLFQEYDNHIKSSVVGSERKRGMQLEDLKQQLQQAEEALVAKQEVIDKLKEEAEQHKIVMETVPV	binds
